Changes are numbered by the printed parent chain. Values belong to the binder of their own block, whether it stands above or below them.
What was measured:
[1] = molecular target: T1, human six-transmembrane epithelial antigen of prostate 2 (STEAP2) (human, UniProt Q8NFT2 1-490); assay: FACS titration on C4-2 cells (endogenous STEAP2), 4-parameter fit
T1 construct: also called hSTEAP2
T1 sequence: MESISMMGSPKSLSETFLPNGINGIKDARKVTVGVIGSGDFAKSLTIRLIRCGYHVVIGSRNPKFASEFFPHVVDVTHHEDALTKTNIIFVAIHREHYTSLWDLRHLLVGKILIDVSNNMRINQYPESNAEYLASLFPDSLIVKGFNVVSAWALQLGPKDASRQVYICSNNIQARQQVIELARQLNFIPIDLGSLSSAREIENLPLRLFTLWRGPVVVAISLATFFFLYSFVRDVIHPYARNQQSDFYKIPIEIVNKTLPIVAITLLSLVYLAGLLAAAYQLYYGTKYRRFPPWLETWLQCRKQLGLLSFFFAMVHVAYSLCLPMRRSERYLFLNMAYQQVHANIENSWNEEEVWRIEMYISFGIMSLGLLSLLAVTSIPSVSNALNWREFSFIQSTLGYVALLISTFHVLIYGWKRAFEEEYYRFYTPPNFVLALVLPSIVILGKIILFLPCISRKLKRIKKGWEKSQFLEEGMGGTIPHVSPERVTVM
Experimental: (§1) Briefly, 1×10⁵ cells were incubated with 10 μg/ml of anti STEAP2 antibodies, or isotype control antibodies for 30 min on ice in antibody dilution buffer. Following one wash with antibody dilution buffer, cells were incubated with 10 μg/ml of PE conjugated anti-human or antimouse Fc secondary antibodies for 30 min on ice. Following one additional wash, samples were incubated with Cytofix (1% formaldehyde) for 20 minutes. After one final wash, samples were filtered through a Pall 96 well filtration block, run on a Hypercyt® cytometer and analyzed in ForeCyt™ (IntelliCyt, Albuquerque, N. Mex.). Mean fluorescence intensities (MFI) were expressed as fold change above unstained levels (background). The average fold above background at antibody concentrations of 100-300 nM were determined.

[2] = molecular target: T1, human six-transmembrane epithelial …; assay: FACS on C4-2 cells (endogenous STEAP2), MFI fold above unstained, average at 100-300 nM antibody
Experimental: as §1

[3] = molecular target: T1, human six-transmembrane epithelial …; assay: FACS on HEK293 cells (low STEAP2), MFI fold above unstained, average at 100-300 nM antibody
Experimental: as §1

[4] = molecular target: T2, human CD3 (human, UniProt P07766 23-207; P04234 22-171); assay: FACS titration on Jurkat cells (human CD3)
T2 construct: As expressed on Jurkat cells or human T cells within the T cell receptor complex; also called hCD3
T2 sequence (P07766 23-207 limits assumed, chain 1 of 2): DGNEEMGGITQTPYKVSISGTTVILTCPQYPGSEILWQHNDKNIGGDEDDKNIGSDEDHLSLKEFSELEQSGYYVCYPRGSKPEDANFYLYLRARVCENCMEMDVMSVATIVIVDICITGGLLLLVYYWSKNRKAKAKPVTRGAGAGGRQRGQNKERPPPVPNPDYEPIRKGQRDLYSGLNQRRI
T2 sequence (P04234 22-171 limits assumed, chain 2 of 2): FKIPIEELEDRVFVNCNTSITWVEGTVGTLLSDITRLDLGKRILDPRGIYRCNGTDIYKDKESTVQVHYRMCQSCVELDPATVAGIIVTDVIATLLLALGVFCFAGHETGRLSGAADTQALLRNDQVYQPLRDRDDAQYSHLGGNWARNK
Experimental: Flow cytometric analysis was utilized to determine binding of STEAP2×CD3 bispecific antibodies to Jurkat, PC3_STEAP2/1 chimeric and cynomolgus T cells, followed by detection with a phycoerythrin (PE)-labeled anti-human IgG antibody. […] After incubation, the cells were washed twice with cold PBS containing 1% filtered FBS and a PE-conjugated anti-human secondary antibody was added to the cells and incubated for an additional 30 minutes. Wells containing no antibody or secondary antibody only were used as a control. After incubation, cells were washed, re-suspended in 200 μL cold PBS containing 1% filtered FBS and analyzed by flow cytometry on a BD FACS Canto II.

[5] = molecular target: T2, human CD3; assay: cell-based or functional assay

B1: H1H11162N (antibody, human IgG1, V domains shown)
VH: QVQLQQSGPGLVKPSQTLSLTCAISGDSVSSNRAAWNWIRQSPSRGLQWLGRTYYRSKWYNDYAVSLRSRITINPVTSKNQVALHMNSVTPEDTAVYYCARAGIVVVPGPETFYYYDHGLDVWGQGTTVTVSS
VL: DIQMTQSPSSLSASVGDRVTITCRASQSIRSYLNWYQQKPGKAPELLIHAASSLQSGVPSRFSGSGSGTDFTLTISSLQPEDFASYYCQQSYSAPPITFGQGTRLEIK
EC50 [1]: 1 nM | Avg F.A.B (fold above background) [2]: 104 fold above background | Avg F.A.B (fold above background) [3]: 10 fold above background

B2: H1H11164N (antibody, human IgG1, V domains shown)
VH: B1 VH with A23V, S31T, R33S, Q48E, L67V, M86L, F113Y, D117Y
VL: B1 VL with S28N, E45K, A50V, S85T, A94T, Q101H
EC50 [1]: 2 nM | Avg F.A.B (fold above background) [2]: 117 fold above background | Avg F.A.B (fold above background) [3]: 10 fold above background

B8: H1H11880P (antibody, human IgG1, V domains shown)
VH: EVQLVESGGGLVQPGGSLRLSCAASGFTFSTYAMHWVRQAPGKGLQHVSTISTNGVNTYYADSVKGRFTISRDNSKSTLYLQMGSLRAEDMAVYYCARDKDFWSGYFDYWGQGTLVTVSS
VL: EIVMTQSPGTLSVSPGERATLSCRASQSVSSNLAWYHQKPGQAPRLLIYGASTRATGFPARFSGSGSGTEFTLTISSLQSEDFAAYYCQQYNNWPITFGQGTRLEIK
EC50 [1]: 5 nM | Avg F.A.B (fold above background) [2]: 6 fold above background | Avg F.A.B (fold above background) [3]: 7 fold above background

B9: H1H11878P (antibody, human IgG1, V domains shown)
VH: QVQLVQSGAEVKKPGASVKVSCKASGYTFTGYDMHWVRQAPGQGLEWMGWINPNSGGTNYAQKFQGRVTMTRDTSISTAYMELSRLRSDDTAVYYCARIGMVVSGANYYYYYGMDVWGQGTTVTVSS
VL: AIQMTQSPSSLSAYVGDRVIITCRASQGIRNDLGWYQQKPGKAPKLLIYAASSLQSGVPSRFSGSRSGTVFTLTISSLQPEDFATYYCLQDYNYPWTFGQGTKVEIK
EC50 [1]: > 50 nM | Avg F.A.B (fold above background) [2]: 27 fold above background | Avg F.A.B (fold above background) [3]: 5 fold above background

B10: H1H7972P (antibody, human IgG1, V domains shown)
VH: QVQLQQSGPGLVKPSQTLSLTCAISGDSVSSNSAAWNWIRQSPSRGLEWLGRTYYRSKWYNDYVVSVKSRIIFNPDTSKNQFSLQLNSVTPEDTAVYYCARVRQDYRSGPFDYWGQGTLVTVSS
VL: EIVMTQSPVTLSVSPGERATLSCWASQSVSSSLAWYQQKPGQAPRLLIYGASTRATGIPARFSGSGSGTGFTLTISSLQSEDFAVYYCQQYNNWPFTFGPGTKVDIK
EC50 [1]: 9 nM | Avg F.A.B (fold above background) [2]: 119 fold above background | Avg F.A.B (fold above background) [3]: 4 fold above background

B11: H1H7814N (antibody, human IgG1, V domains shown)
VH: QVQLVESGGGVVQPGRSLRLSCVASGFTISSYGMNWVRQAPGKGLEWVAVISYDGGNKYSVDSVKGRFTISRDNSKNTLYLQMNSLRAEDSAVYYCARGRYFDLWGRGTLVTVSS
VL: DIQMTQSPSTLSASVGDRVTITCRASQSISSWLAWYQQKPGRAPNLLISKASSLKSGVPSRFSGSGSGTEFTLTVSSLQPDDFATYYCQQYYSYSYTFGQGTKLEIK
EC50 [1]: 4 nM | Avg F.A.B (fold above background) [2]: 96 fold above background | Avg F.A.B (fold above background) [3]: 2 fold above background

B12: H1H7810N (antibody, human IgG1, V domains shown)
VH: B11 VH with V23A, A24V, I29S, S31T, G56S, S60Y, V61A, A88P, S91T
VL: B11 VL with S28I, R42K, N45K, S49Y, K55A, V75I, Y92K
Avg F.A.B (fold above background) [2]: 26 fold above background | Avg F.A.B (fold above background) [3]: 3 fold above background

B13: H1H7811N (antibody, human IgG1, V domains shown)
VH: QVQLVESGGGVVQPGRSLRLSCAVSGFTSSTYGMNWVRQAPGKGLEWVAVISFDGSNKYYADSVKGRFTISRDNSKNTLYLQMSSLRPEDTAVYYCARGRYFDLWGRGTLVTVSS
VL: B11 VL with I2T, S28I, R42K, N45K, S49Y, K55A, V75I, Y92K, K103N
EC50 [1]: > 50 nM | Avg F.A.B (fold above background) [2]: 65 fold above background | Avg F.A.B (fold above background) [3]: 5 fold above background

B14: H1H11163N (antibody, human IgG1, V domains shown)
VH: QVQLQQSGPGLVKPSQALSLTCAISGDSVSSNSAAWNWIRQSPSRGLEWLGRTYYRSKWYNDYAVSVKSRITINPDTSKNHFSLHLNSMTPEDTAVYYCARARIVVVPGPEVYYYYYYDMDVWGQGTTVTVSS
VL: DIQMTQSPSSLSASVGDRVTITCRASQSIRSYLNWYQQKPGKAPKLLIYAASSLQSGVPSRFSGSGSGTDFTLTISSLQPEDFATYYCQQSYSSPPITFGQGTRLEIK
EC50 [1]: 3 nM | Avg F.A.B (fold above background) [2]: 90 fold above background | Avg F.A.B (fold above background) [3]: 6 fold above background

B15: H1H11243N (antibody, human IgG1, V domains shown)
VH: B14 VH with A17T, H81Q, M89V, R103G, E111D, V112I, D119G
VL: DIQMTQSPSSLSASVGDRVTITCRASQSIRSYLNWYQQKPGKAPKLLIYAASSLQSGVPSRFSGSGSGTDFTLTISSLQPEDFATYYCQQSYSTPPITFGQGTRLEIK
Avg F.A.B (fold above background) [2]: 41 fold above background | Avg F.A.B (fold above background) [3]: 3 fold above background

B18: H1H7809N (antibody, human IgG1, V domains shown)
VH: QVQLVESGGGVVQPGRSLGLSCAASGFTFSSYGMHWVRQAPGKGLEWVAVIWYDGSNKYYVDSVKGRFTISRDNSKNTLYLQMNSLRAEDTAVYYCAREGLRFLENYYYYYGMDVWGQGTTVTVSS
VL: EIVLTQSPGTLSLSPGERATLSCRASQSISSTYLAWYQQRPGQAPRLLIYGASSRATGIPDRFSGSGSGTDFTLTISRLEPEDFAVYYCQQYGTSPYTFGQGTKLEIK
EC50 [1]: > 50 nM | Avg F.A.B (fold above background) [2]: 89 fold above background | Avg F.A.B (fold above background) [3]: 31 fold above background

The remaining lines, values ahead:

Avg F.A.B (fold above background) [2]: 4 fold above background | Avg F.A.B (fold above background) [3]: 3 fold above background
B3: H1H11892P2 (antibody, human IgG1, V domains shown)
VH: EVQLVESGGGLVQPGGSLRLSCATSGFTFSNYDFHWVRQIRGQGLEWVSTIDTAGDTYFSGSVKGRFTISRDTAKTSLYLQMNSLRAGDTAVYYCARAPRYDSTGNYYNYYSYFGLDVWGQGTTVTVSS
VL: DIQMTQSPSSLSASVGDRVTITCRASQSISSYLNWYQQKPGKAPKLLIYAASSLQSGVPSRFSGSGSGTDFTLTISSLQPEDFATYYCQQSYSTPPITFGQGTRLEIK

EC50 [1]: > 50 nM | Avg F.A.B (fold above background) [2]: 29 fold above background | Avg F.A.B (fold above background) [3]: 16 fold above background
B4: H1H11897P2 (antibody, human IgG1, V domains shown)
VH: EVQLVESGGGLVQPGGSLRLSCAVSGFTFSSYAMSWVRQAPGKGLEWVSVISGSGDFTYHADSVKGRFTISRDNSKSTLYLQLNSLRAEDTAVYYCAKKGLRYFDWYDYWGQGTLVTVSS
VL: not shown

EC50 [1]: 21 nM | Avg F.A.B (fold above background) [2]: 9 fold above background | Avg F.A.B (fold above background) [3]: 3 fold above background
B5: H1H11893P2 (antibody, human IgG1, V domains shown)
VH: QVQLVQSGAEVKKPGASVKVSCKVSGYTLTELSMHWVRQAPGKGLEWMGSFDPEDDETIYAQKFQGRVTMTEDTSTDTAYMDLSSLRSEDTAVYYCSIEEVRWRGSDYYYVMDVWGQGTTVTVSS
VL: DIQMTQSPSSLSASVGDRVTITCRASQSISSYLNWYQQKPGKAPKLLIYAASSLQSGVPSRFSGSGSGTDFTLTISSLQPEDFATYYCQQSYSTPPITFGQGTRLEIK

Avg F.A.B (fold above background) [2]: 7 fold above background | Avg F.A.B (fold above background) [3]: 4 fold above background
B6: H1H11894P2 (antibody, human IgG1, V domains shown)
VH: QVQLVQSGAEVKKPGSSVKVSCRASGGTFSRFAIGWVRQAPGQGLEWMGGIIPIFGTASYAQKFQGRVTITTDESTSTAYMELRSLRSEDTAVYYCTREGITGRGYYYYGMDVWGQGTTVTVSS
VL: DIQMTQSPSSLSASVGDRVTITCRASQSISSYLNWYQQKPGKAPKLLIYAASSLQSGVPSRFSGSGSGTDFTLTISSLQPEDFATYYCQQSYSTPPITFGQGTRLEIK

EC50 [1]: 16 nM | Avg F.A.B (fold above background) [2]: 6 fold above background | Avg F.A.B (fold above background) [3]: 4 fold above background
B7: H1H11895P2 (antibody, human IgG1, V domains shown)
VH: QVQLQESGPGLVKPSETLSLTCTVSGGSISIYYWTWIRQPPGKGLEWIGNIFYSGSTNYNPSLKSRVTISVDTSKNQFSLKLSSVTAADTAVYYCARERLGRYDAFDNWGQGTMVTVSS
VL: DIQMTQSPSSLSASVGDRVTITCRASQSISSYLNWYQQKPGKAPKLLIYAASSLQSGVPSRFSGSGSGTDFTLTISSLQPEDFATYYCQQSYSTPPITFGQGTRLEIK

EC50 [1]: 21 nM | Avg F.A.B (fold above background) [2]: 6 fold above background | Avg F.A.B (fold above background) [3]: 7 fold above background
B16: H1H11896P2 (antibody, human IgG1, V domains shown)
VH: EVQLVESGGGLVQPGGSLRLSCAASRFTFSSYAMSWVRQAPGKGLEWVSLISGSGGRTWYADSVKGRFTISRDNSKNTLFLQMNSLRAEDTAVYYCAKEGGIFGVVTFFDYWGQGTLVTVSS
VL: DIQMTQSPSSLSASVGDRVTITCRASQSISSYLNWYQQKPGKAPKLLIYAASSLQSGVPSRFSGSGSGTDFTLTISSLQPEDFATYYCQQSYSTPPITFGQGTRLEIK

EC50 [4]: 8.63 nM | hPBMC Proliferation [M] (EC50, with anti-CD28) [5]: 8.62e-12 M
B17: BSSTEAP2/CD3-011 (bispecific antibody, V domains shown)
VH 1: B18 VH
VH 2: EVQLVQSGGGLVQPGRSLRLSCAASGFTFADYTMHWVRQTPGKGLEWVSGISWNSGSKDYADSVKGRFTISRDNAKNSLYLQMNSLRTEDTALYYCAKYGSGYGRYFFYAMDVWGQGTTVTVSS
VL: B18 VL
notes: also called BSSTEAP2/CD3-0011

EC50 [1]: 3 nM | Avg F.A.B (fold above background) [2]: 6 fold above background | Avg F.A.B (fold above background) [3]: 9 fold above background
B19: H1H11888P2 (antibody, human IgG1, V domains shown)
VH: QVQLQESGPGLVKPSQTLSLTCTVSGYSINSGGHFWSWIRQHPGKGLEWIGDIYYSGNTYSIPSLKRRISMSVDTSKNHFSLKLISVTAADTAIYYCARNSGGYLDAFDIWGQGTMVTVSS
VL: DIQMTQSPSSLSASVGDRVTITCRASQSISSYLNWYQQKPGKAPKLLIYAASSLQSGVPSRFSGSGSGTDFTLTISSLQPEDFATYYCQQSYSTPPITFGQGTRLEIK

From patent US20200376136A1 (Regeneron, published 2020)
